Measurements as given in patent publication US20090311714.

T1: GlcNAc-MurNAc-L-Ala-D-iGln-L-(N-epsilon-D-iAsn)Lys-D-Ala
T1 chain: AQKA

T2: GlcNAc-MurNAc-L-Ala-D-iGln-L-Lys-D-Ala
T2 chain: AQKA

T3: GlcNAc-MurNAc-L-Ala-D-iGlu-L-(N-epsilon-D-iAsn)Lys-D-Ala (not fully specified)
T3 chain: AEKA

T4: L-Ala-D-iGlu-L-Lys-D-Ala (not fully specified)
T4 chain: AEKA

T5: N-alpha,N-epsilon-diacetyl-L-lysyl-D-alanine
T5 chain: KA

T6: UDP-MurNAc-L-Ala-D-iGlu-L-Lys-D-Ala (not fully specified)
T6 chain: AEKA


Experiments:
[1] = biological target: T1, GlcNAc-MurNAc-L-Ala-D-iGln-L-(N-epsilon- …)
[2] = biological target: T2, GlcNAc-MurNAc-L-Ala-D-iGln-L-Lys-D-Ala
[3] = biological target: GlcNAc-MurNAc-L-Ala-D-iGlu-L-(N-epsilon-D-iAsn)Lys-D-Ala-D-Ala
[4] = biological target: T3, GlcNAc-MurNAc-L-Ala-D-iGlu-L-(N-epsilon- …)
[5] = biological target: L-Ala-D-iGlu-L-Lys-D-Ala-D-Ala
L-Ala-D-iGlu-L-Lys-D-Ala = biological target: T4, L-Ala-D-iGlu-L-Lys-D-Ala
[6] = biological target: T5, N-alpha,N-epsilon-diacetyl-L-lysyl-D-ala …
[7] = biological target: UDP-MurNAc-L-Ala-D-iGlu-L-Lys-D-Ala-D-Ala
[8] = biological target: T6, UDP-MurNAc-L-Ala-D-iGlu-L-Lys-D-Ala

Protein	formation of dimers, by mass spectrometry (in vitro L,D-transpeptidation) [1]	formation of dimers, by mass spectrometry (in vitro L,D-transpeptidation) [2]	formation of radioactive peptides in the exchange assay with D-[14C]Ala as the acceptor [3]	formation of radioactive peptides in the exchange assay with D-[14C]Ala as the acceptor [4]	formation of radioactive peptides in the exchange assay with D-[14C]Ala as the acceptor [5]	formation of radioactive peptides in the exchange assay with D-[14C]Ala as the acceptor (L-Ala-D-iGlu-L-Lys-D-Ala)	formation of radioactive peptides in the exchange assay with D-[14C]Ala as the acceptor [6]	formation of radioactive peptides in the exchange assay with D-[14C]Ala as the acceptor [7]	formation of radioactive peptides in the exchange assay with D-[14C]Ala as the acceptor [8]	formation of [14C]UDP-MurNac-hexapeptide in the D-aspartate ligase assay [7]
L,D-transpeptidase of Enterococcus faecium M512 (Ldtfm), soluble recombinant fragment, residues 119 to 466, with C-terminal polyhistidine tag (protein) MAEKQEIDPVSQNHQKLDTTVQTLTTKLTDLNKDRTPTTDATIEKAGDSFVIKPEVNGNTIDVDAAVKQLKSAVNSGKDTIELTEFKEKPKVTSEDSSLKEQLASMNAIANVKATYSINGETFQIPSSDIMSWLTYNDGKVDLDTEQVRQYVTDLGTKYNTSTNDTKFKSTKRGEVTVPVGTYSWTIQTDSETEALKKAILAGQDFTRSPIVQGGTTADHPLIEDTYIEVDLENQHMWYYKDGKVALETDIVSGKPTTPTPAGVFYVWNKEEDATLKGTNDDGTPYESPVNYWMPIDWTGVGIHDSDWQPEYGGDLWKTRGSHGCINTPPSVMKELFGMVEKGTPVLVFGSHHHHHH	formation of dimers with two types of donors (tetrapeptide and tetrapeptide-iAsn) and two types of acceptors (tetrapeptide-iAsn and tripeptide-iAsn) in the four possible combinations	formation of dimers with two types of donors (tetrapeptide and tetrapeptide-iAsn) ...; The muropeptide containing an unsubstituted tetrapeptide stem was not used as an acceptor	Formation of radioactive peptides was not detected	Formation of radioactive peptides was observed ... also with the complete disaccharide-tetrapeptide(iAsn) peptidoglycan unit	Formation of radioactive peptides was not detected	Formation of radioactive peptides was observed ... with other donors containing a tetrapeptide ending in D-Ala	Formation of radioactive peptides was observed not only with Ac2-L-Lys-D-Ala	Formation of radioactive peptides was not detected	Formation of radioactive peptides was observed ... with other donors containing a tetrapeptide ending in D-Ala	
D-aspartate ligase of Enterococcus faecium (Aslfm) (protein) MMNSIENEEFIPILLGSDMNVYGMARSFNEAYGKICQAYASDQLAPTRYSKIVNVEVIPGFDKDPVFIETMLRLAKERYSDKSKKYLLIACGDGYAELISQHKQELSEYFICPYIDYSLFERLINKVSFYEVCEEYDLPYPKTLIVREEMLVNGHLEQELPFEFPVALKPANSVEYLSVQFEGRKKAFILETREEFDLILGRIYEAGYKSEMIVQDFIPGDDSNMRVLNAYVDEDHQVRMMCLGHPLLEDPTPASIGNYVVIMPDYNEKIYQTIKAFLEKIEYTGFANFDMKYDPRDGEYKLFEINLRQGRSSFFVTLNGLNLARFVTEDRVFNKPFVETTYGTNQSDKARLWMGVPKKIFLEYARENEDKKLAEQMIKENRYGTTVFYEKDRSIKRWLLMKYMFHNYIPRFKKYFHVKEG										Addition of 2 µg of purified protein in the D-aspartate ligase assay resulted in the formation of a radioactive product corresponding to the labeled hexapeptide
